The chains are these.
B9: Isl1, full-length, His-tagged (natural protein, mouse, UniProt P61372 1-349, looked up)
chain: MGDMGDPPKKKRLISLCVGCGNQIHDQYILRVSPDLEWHAACLKCAECNQYLDESCTCFVRDGKTYCKRDYIRLYGIKCAKCSIGFSKNDFVMRARSKVYHIECFRCVACSRQLIPGDEFALREDGLFCRADHDVVERASLGAGDPLSPLHPARPLQMAAEPISARQPALRPHVHKQPEKTTRVRTVLNEKQLHTLRTCYAANPRPDALMKEQLVEMTGLSPRVIRVWFQNKRCKDKKRSIMMKQLQQQQPNDKTNIQGMTGTPMVAASPERHDGGLQANPVEVQSYQPPWKVLSDFALQSDIDQPAFQQLVNFSEGGPGSNSTGSEVASMSSQLPDTPNSMVASPIEA
notes: Isl1, mouse, full-length coding region in pET-28a(+); 349 a.a; source: E. coli, in lysate (pull-down); purified on His SpinTrap columns (EMSA); not shown: His tag, C-terminal, kept

Series [1] addresses B9. The series is described as follows: native gel or EMSA; EMSA with purified His-tagged proteins (200 ng each) and radiolabelled DNA probes (SBRN3, CBRN3; Ebf3 and Irx6 for Isl1 with Pou4f2D5); protein-protein complex read from a slower migrating ternary complex on DNA; 20 mM Tris-HCl pH 7.5, 0.05 M NaCl, 10 mM DTT, 1 mM EDTA, 5% glycerol, 4 C. The following applies: both partners purified. In general terms: In EMSA bound probe runs differently from free probe, usually more slowly.

Another series addresses T1, Isl1 (mouse, UniProt P61372 1-349).
T1 sequence: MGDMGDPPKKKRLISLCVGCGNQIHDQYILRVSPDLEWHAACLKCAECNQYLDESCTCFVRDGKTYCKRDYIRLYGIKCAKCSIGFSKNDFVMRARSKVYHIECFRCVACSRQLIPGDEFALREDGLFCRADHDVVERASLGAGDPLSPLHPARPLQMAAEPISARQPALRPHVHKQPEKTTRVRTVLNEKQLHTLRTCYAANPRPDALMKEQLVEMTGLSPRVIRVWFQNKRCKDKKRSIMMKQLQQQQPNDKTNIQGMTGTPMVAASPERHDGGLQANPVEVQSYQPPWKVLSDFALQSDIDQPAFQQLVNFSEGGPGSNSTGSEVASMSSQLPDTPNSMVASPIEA
The series is described as follows: EMSA; EMSA: 20 mM Tris-HCl pH 7.5, 50 mM NaCl, 10 mM DTT, 1 mM EDTA, 5% glycerol, 200 ng dI/dC, 200 ng each protein in 20 ul, 4 C, 30 min; 8% PAGE, 1x TBE, 4 C. The following applies: protein: recombinant, tags: His (C-terminal, pET-28a).

Another series deals with T2, Pou4f2D5 (mouse, UniProt Q63934 125-411).
T2 sequence: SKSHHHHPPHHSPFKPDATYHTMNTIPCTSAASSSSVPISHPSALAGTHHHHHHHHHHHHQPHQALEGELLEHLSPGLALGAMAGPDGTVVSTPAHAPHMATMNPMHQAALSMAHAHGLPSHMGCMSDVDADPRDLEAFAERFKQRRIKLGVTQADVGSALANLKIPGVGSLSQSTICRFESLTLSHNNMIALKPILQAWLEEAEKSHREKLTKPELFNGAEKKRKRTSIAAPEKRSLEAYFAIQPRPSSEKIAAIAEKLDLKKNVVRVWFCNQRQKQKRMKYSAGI
Described as above. The following applies: protein: recombinant, tags: His (C-terminal).

Series [2] has as its target T3, Pou4f2, full-length, His-tagged (mouse, UniProt Q63934 1-411).
T3 construct: Pou4f2 (Brn3b), mouse, full-length coding region in pET-28a(+); 411 a.a; also called Brn3b; source: E. coli, in lysate (pull-down); purified on His SpinTrap columns (EMSA); not shown: His tag, C-terminal, kept
T3 sequence (looked up): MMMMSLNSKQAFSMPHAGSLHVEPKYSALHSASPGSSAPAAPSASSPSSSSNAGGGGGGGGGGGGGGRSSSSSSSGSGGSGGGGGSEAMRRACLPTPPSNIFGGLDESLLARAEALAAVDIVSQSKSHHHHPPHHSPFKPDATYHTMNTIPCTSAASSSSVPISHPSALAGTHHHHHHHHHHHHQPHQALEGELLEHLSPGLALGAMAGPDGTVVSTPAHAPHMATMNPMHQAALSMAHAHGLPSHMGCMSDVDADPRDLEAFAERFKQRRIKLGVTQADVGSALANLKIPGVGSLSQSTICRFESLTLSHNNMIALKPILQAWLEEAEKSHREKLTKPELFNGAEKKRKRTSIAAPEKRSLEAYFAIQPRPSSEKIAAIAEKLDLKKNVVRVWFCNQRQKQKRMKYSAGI
As to the kind of experiment: native gel or EMSA; EMSA with purified His-tagged proteins (200 ng each) and radiolabelled DNA probes (SBRN3, CBRN3; Ebf3 and Irx6 for Isl1 with Pou4f2D5); protein-protein complex read from a slower migrating ternary complex on DNA; 20 mM Tris-HCl pH 7.5, 0.05 M NaCl, 10 mM DTT, 1 mM EDTA, 5% glycerol, 4 C. The note with it: both partners purified.

The next series deals with T4, Pou4f2 (Brn3b) (mouse, UniProt Q63934 1-411).
T4 sequence: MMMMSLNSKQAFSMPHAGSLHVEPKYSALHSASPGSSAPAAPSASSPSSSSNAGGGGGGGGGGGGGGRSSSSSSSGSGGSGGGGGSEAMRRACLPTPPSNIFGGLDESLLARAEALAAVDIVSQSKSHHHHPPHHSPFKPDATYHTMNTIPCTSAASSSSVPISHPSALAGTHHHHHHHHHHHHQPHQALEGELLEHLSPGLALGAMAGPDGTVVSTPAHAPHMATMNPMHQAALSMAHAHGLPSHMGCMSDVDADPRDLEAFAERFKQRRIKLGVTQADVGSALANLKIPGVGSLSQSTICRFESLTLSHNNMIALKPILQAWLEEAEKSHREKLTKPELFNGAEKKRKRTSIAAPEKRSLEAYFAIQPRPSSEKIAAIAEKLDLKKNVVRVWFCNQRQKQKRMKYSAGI
As to the kind of experiment: EMSA; EMSA: 20 mM Tris-HCl pH 7.5, 50 mM NaCl, 10 mM DTT, 1 mM EDTA, 5% glycerol, 200 ng dI/dC, 200 ng each protein in 20 ul, 4 C, 30 min; 8% PAGE, 1x TBE, 4 C. The note with it: protein: recombinant; tags: His (C-terminal, pET-28a); (radiolabel, Klenow fill-in); 5' overhang 1 nt at both ends before fill-in.

For series [3], the target named is T5, Isl1 expressed in HEK 293 cells (mouse, UniProt P61372 1-349).
T5 sequence (looked up): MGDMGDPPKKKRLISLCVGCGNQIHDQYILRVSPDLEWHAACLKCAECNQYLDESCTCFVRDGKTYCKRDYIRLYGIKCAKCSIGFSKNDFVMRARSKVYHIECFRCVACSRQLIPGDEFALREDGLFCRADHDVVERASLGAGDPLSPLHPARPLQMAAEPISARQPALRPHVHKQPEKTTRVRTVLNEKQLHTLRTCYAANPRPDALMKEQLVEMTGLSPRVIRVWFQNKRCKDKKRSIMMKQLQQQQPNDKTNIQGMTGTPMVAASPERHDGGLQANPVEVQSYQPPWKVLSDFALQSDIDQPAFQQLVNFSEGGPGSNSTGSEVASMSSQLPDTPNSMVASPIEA
As to the kind of experiment: cell-based or functional assay.

Where [4] appears, read: (radiolabel, Klenow fill-in), one end blunt, lower strand 5' overhang 1 nt before fill-in.
The mark [5] stands for this setting: (radiolabel, Klenow fill-in), 5' overhang 1 nt at both ends before fill-in.

B1: Pou4f2D5 (a.a. 125-411) (domain or fragment, mouse, UniProt Q63934 125-411, looked up)
chain: SKSHHHHPPHHSPFKPDATYHTMNTIPCTSAASSSSVPISHPSALAGTHHHHHHHHHHHHQPHQALEGELLEHLSPGLALGAMAGPDGTVVSTPAHAPHMATMNPMHQAALSMAHAHGLPSHMGCMSDVDADPRDLEAFAERFKQRRIKLGVTQADVGSALANLKIPGVGSLSQSTICRFESLTLSHNNMIALKPILQAWLEEAEKSHREKLTKPELFNGAEKKRKRTSIAAPEKRSLEAYFAIQPRPSSEKIAAIAEKLDLKKNVVRVWFCNQRQKQKRMKYSAGI
notes: Pou4f2, mouse, a.a; 125-411, POU and homeo domains intact; source: E. coli, in lysate (pull-down); purified on His SpinTrap columns (EMSA); not shown: His tag, C-terminal, kept
As for B1, the binding result in series [1] is given as “binds”.

B2: EBF3(M) (dsDNA)
DNA 1: GTGCGTTGCTATTTTCGTTGCTCGGGAAAA
DNA 2: TTTTCCCGAGCAACGAAAATAGCAACGCAC
B2: the binding result with Isl1 ((radiolabel, Klenow), blunt) is reported as “no binding”; with Pou4f2D5 ((radiolabel, Klenow), blunt), “no binding”.

B3: Isl1D4 (a.a. 146-349) (domain or fragment, mouse, UniProt P61372 146-349, looked up)
chain: PLSPLHPARPLQMAAEPISARQPALRPHVHKQPEKTTRVRTVLNEKQLHTLRTCYAANPRPDALMKEQLVEMTGLSPRVIRVWFQNKRCKDKKRSIMMKQLQQQQPNDKTNIQGMTGTPMVAASPERHDGGLQANPVEVQSYQPPWKVLSDFALQSDIDQPAFQQLVNFSEGGPGSNSTGSEVASMSSQLPDTPNSMVASPIEA
notes: Isl1, mouse, a.a; 146-349; source: E. coli, in lysate (pull-down); purified on His SpinTrap columns (EMSA); not shown: His tag, C-terminal, kept
Consider B3, for which, in series [2], the binding result is reported as “binds”.

B4: Isl1D5 (a.a. 74-349) (domain or fragment, mouse, UniProt P61372 74-349, looked up)
chain: LYGIKCAKCSIGFSKNDFVMRARSKVYHIECFRCVACSRQLIPGDEFALREDGLFCRADHDVVERASLGAGDPLSPLHPARPLQMAAEPISARQPALRPHVHKQPEKTTRVRTVLNEKQLHTLRTCYAANPRPDALMKEQLVEMTGLSPRVIRVWFQNKRCKDKKRSIMMKQLQQQQPNDKTNIQGMTGTPMVAASPERHDGGLQANPVEVQSYQPPWKVLSDFALQSDIDQPAFQQLVNFSEGGPGSNSTGSEVASMSSQLPDTPNSMVASPIEA
notes: Isl1, mouse, a.a; 74-349; source: E. coli, in lysate (pull-down); purified on His SpinTrap columns (EMSA); not shown: His tag, C-terminal, kept
On to B4, for which the binding result in series [2] was “binds”.

B5: Isl1D3 (a.a. 170-349) (domain or fragment, mouse, UniProt P61372 170-349, looked up)
chain: LRPHVHKQPEKTTRVRTVLNEKQLHTLRTCYAANPRPDALMKEQLVEMTGLSPRVIRVWFQNKRCKDKKRSIMMKQLQQQQPNDKTNIQGMTGTPMVAASPERHDGGLQANPVEVQSYQPPWKVLSDFALQSDIDQPAFQQLVNFSEGGPGSNSTGSEVASMSSQLPDTPNSMVASPIEA
notes: Isl1, mouse, a.a; 170-349, only the homeodomain and the C terminal region, none of the Lim domains; source: E. coli, in lysate (pull-down); purified on His SpinTrap columns (EMSA); not shown: His tag, C-terminal, kept
As to B5, the binding result in series [2] is given as “binds”.

B6: IRX6(M) (dsDNA)
DNA 1: TACTACTGCTTCGTTGCTTGCAAACATTTC
DNA 2: GGAAATGTTTGCAAGCAACGAAGCAGTAGTA
Regarding B6, the binding result with Isl1 (setting [4]) and with Pou4f2D5 (setting [4]) was “no binding” in each case.

B7: SBRN3(M) (dsDNA)
DNA 1: GCACACGACCCAGCGCGTTGACAACCGGGCTG
DNA 2: GCAGCCCGGTTGTCAACGCGCTGGGTCGTGTG
B7: the binding result in the series with Pou4f2 (Brn3b) and with Isl1 (setting [5]) was “no binding” in each case.

B8: EBF3(W) (dsDNA)
DNA 1: GTGCGTTAATATTTTAATTAATCGGGAAAA
DNA 2: TTTTCCCGATTAATTAAAATATTAACGCAC
Consider B8, for which the binding result with Isl1 ((radiolabel, Klenow), blunt) was “binds”; in the series with Pou4f2D5 ((radiolabel, Klenow), blunt) it was “binds”.
As to B9, the binding result in series [2] is listed as “binds”.

B10: Pou4f2 expressed in HEK 293 cells (natural protein, mouse, UniProt Q63934 1-411, looked up)
chain: MMMMSLNSKQAFSMPHAGSLHVEPKYSALHSASPGSSAPAAPSASSPSSSSNAGGGGGGGGGGGGGGRSSSSSSSGSGGSGGGGGSEAMRRACLPTPPSNIFGGLDESLLARAEALAAVDIVSQSKSHHHHPPHHSPFKPDATYHTMNTIPCTSAASSSSVPISHPSALAGTHHHHHHHHHHHHQPHQALEGELLEHLSPGLALGAMAGPDGTVVSTPAHAPHMATMNPMHQAALSMAHAHGLPSHMGCMSDVDADPRDLEAFAERFKQRRIKLGVTQADVGSALANLKIPGVGSLSQSTICRFESLTLSHNNMIALKPILQAWLEEAEKSHREKLTKPELFNGAEKKRKRTSIAAPEKRSLEAYFAIQPRPSSEKIAAIAEKLDLKKNVVRVWFCNQRQKQKRMKYSAGI
As for B10, in series [3], the “luciferase reporter with the CBRN3 motif in HEK 293 cells, both expression constructs co-transfected, fold increase from the control (each factor alone about 2.5 fold)” value was about 3.5 fold.

B11: CBRN3(M) (dsDNA)
DNA 1: GATCTCTCCTGCGCGGTTGACTACCCCCGGAT
DNA 2: GATCCGGGGGTAGTCAACCGCGCAGGAGAGAT
Regarding B11, the binding result in the series with Pou4f2 (Brn3b) and with Isl1 (setting [5]) was “no binding” in each case.

B12: IRX6(W) (dsDNA)
DNA 1: GTACTACTAATTAATTAATTGCAAACATTTC
DNA 2: GGAAATGTTTGCAATTAATTAATTAGTAGTA
Turning to B12, the binding result in the series with Isl1 (setting [5]) and with Pou4f2D5 (setting [5]) was “binds” each time.

Source of the values: PMC3958441, “Isl1 and Pou4f2 Form a Complex to Regulate Target Genes in Developing Retinal Ganglion Cells” (PLoS ONE, 2014).
